# Measurements taken from the supplement of paper PMC7125110.
# ± gives the standard error. For part of these data: This sample holds only a part of the variants without activity.
# B1: glmS ribozyme (parent)
# chain: AUAAAAGCGCCAGAACUACAGAAAUGUAGUUGACGAGGAGGAGGUUUAUCGAAUUUUCGGCGGAUGCCUCCAAA
# Tests used:
# Conditions in all cases: with glucosamine-6-phosphate
# glucosamine-6-phosphate [1] = variants of: B1; experiment: kcat; higher = faster cleavage; RNA array
# How it was run: (§1)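 Tiles bearing barcoded ribozyme variants, transcribed in situ by E. coli RNA polymerase on sequenced MiSeq chips, were imaged over ~14 h at 37 °C using a hybridised Cy3 probe. Glucosamine-6-phosphate was supplied at 40 μM to 10 mM in HEPES/KCl/Mg(OAc)2 buffer. kobs came from one- or two-exponential decay fits to normalised per-tile medians, and weighted Michaelis–Menten fits then provided kcat and KM.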
# glucosamine-6-phosphate [2] = variants of: B1; experiment: KM; higher = weaker cofactor use; RNA array
# How it was run: as §1
# glucosamine-6-phosphate [3] = variants of: B1; experiment: self-cleavage kobs at 2500 uM GlcN6P; higher = faster cleavage; RNA array
# How it was run: as §1
# glucosamine-6-phosphate [4] = variants of: B1; experiment: self-cleavage kobs at 10000 uM GlcN6P; higher = faster cleavage; RNA array
# How it was run: as §1
# glucosamine-6-phosphate [5] = variants of: B1; experiment: self-cleavage kobs at 40 uM GlcN6P; higher = faster cleavage; RNA array
# How it was run: as §1
# glucosamine-6-phosphate [6] = variants of: B1; experiment: self-cleavage kobs at 160 uM GlcN6P; higher = faster cleavage; RNA array
# How it was run: as §1
# glucosamine-6-phosphate [7] = variants of: B1; experiment: self-cleavage kobs at 640 uM GlcN6P; higher = faster cleavage; RNA array
# How it was run: as §1
Variant,kcat (glucosamine-6-phosphate [1]) [s⁻¹],KM (glucosamine-6-phosphate [2]) [µM],self-cleavage kobs at 2500 uM GlcN6P (glucosamine-6-phosphate [3]) [s⁻¹],self-cleavage kobs at 10000 uM GlcN6P (glucosamine-6-phosphate [4]) [s⁻¹],self-cleavage kobs at 40 uM GlcN6P (glucosamine-6-phosphate [5]) [s⁻¹],self-cleavage kobs at 160 uM GlcN6P (glucosamine-6-phosphate [6]) [s⁻¹],self-cleavage kobs at 640 uM GlcN6P (glucosamine-6-phosphate [7]) [s⁻¹]
A12G G37A,0.000113 ± 2.5e-05,6320 ± 2800,3.05e-05 ± 8.5e-06,6.97e-05 ± 1.1e-05,–,–,–
G32C A42G,0.000211 ± 3.7e-05,–,3.92e-05 ± 9.5e-06,0.000103 ± 1.3e-05,–,–,–
A15G A53U,0.0369 ± 0.0054,2500 ± 470,0.0176 ± 0.0065,0.0306 ± 0.0073,0.000575 ± 0.00011,0.0027 ± 0.00073,0.00647 ± 0.002
A42U U54C,0.00019 ± 4.1e-05,–,0.00024 ± 3.8e-05,0.000159 ± 1.7e-05,–,–,6.5e-05 ± 1.1e-05
U55C U65A,0.00421 ± 0.00073,2040 ± 540,0.00204 ± 0.00038,0.00379 ± 0.00046,0.0001 ± 1.4e-05,0.00028 ± 7.3e-05,0.000826 ± 0.00017
A48G U56A,6.12e-05 ± 9.5e-06,–,4.68e-05 ± 7.6e-06,5.17e-05 ± 8.2e-06,–,–,–
A48G C61A,1.07e-05 ± 3.1e-06,–,–,–,–,–,–
U49A A64G,2.04e-05 ± 1.6e-06,2090 ± 850,–,–,–,–,–
A36U A64G,1.98e-05 ± 2e-06,–,–,1.85e-05 ± 5.8e-06,–,–,–
C11U A15G,0.00211 ± 0.00043,1010 ± 320,0.00141 ± 0.00022,0.0023 ± 0.00037,0.000103 ± 1.4e-05,0.000249 ± 4.3e-05,0.000746 ± 8.9e-05
A14U C61A C70A,1.21e-05 ± 3.3e-06,–,–,–,–,–,–
A6G C10U U56A,< 1e-05,–,–,–,< 1e-05,–,< 1e-05
G29C A42G,0.00279 ± 0.00031,1790 ± 300,0.00144 ± 0.00025,0.00253 ± 0.00032,6.95e-05 ± 1e-05,0.000209 ± 4e-05,0.000724 ± 0.00013
A12C C61U,1.24e-05 ± 3.6e-06,–,–,–,< 1e-05,–,–
A15G U57G,9.24e-05 ± 1.1e-05,2500 ± 1200,5.11e-05 ± 2.2e-05,7.35e-05 ± 1.2e-05,–,–,–
C11G C70U,1.5e-05 ± 6.7e-07,138 ± 61,–,–,–,–,–
A15C A42U,1.58e-05 ± 3.7e-06,–,–,–,< 1e-05,< 1e-05,–
A52C C67A C68G,2.5e-05 ± 1.2e-05,–,–,–,–,–,–
C50G C61G,0.000119 ± 1.7e-05,–,0.000161 ± 2e-05,9.9e-05 ± 1e-05,8.54e-05 ± 1.1e-05,0.000156 ± 1.9e-05,0.000115 ± 1.6e-05
